Biological target: T1, ZNRF3 ECD (UniProt Q9ULT6 56-219, limits assumed)
T1 construct: extracellular domain; also called ZNRF3 extracellular domain; fluorescently labeled ZNRF3 ECDs
T1 sequence (looked up): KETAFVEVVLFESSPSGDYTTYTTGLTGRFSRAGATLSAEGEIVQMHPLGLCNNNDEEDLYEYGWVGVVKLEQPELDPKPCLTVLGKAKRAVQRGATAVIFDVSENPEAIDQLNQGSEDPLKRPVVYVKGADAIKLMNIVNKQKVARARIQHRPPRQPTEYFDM
Assay: surface plasmon resonance (FIG. 3B)

B1: ZNRF3-specific scFv "Z6" (scFv)
scFv: ASQVQLVQSGAEVKNPGASVKVSCKASGYAFTSYGISWVRQAPGQGLEWMGWISAYTRNTNYAQKFQGRVTLTTDTSTSTAYMELRSLRSDDTAIYYCARDARYSLGVGAFDVWGQGTMVTVSSGILGSGGGGSGGGGSGGGGSETTLTQSPAFMSATPGDKVSISCKASRDIDDDLNWYQQKPGEAAISIIQEATTLVPGIPPRFSGSGYGTDFTLTINNIESEDAAYYFCLQHDDVPYTFGQGTKLEIKSGIL
notes: the display fusion is not described; also called ZNRF3-specific single-chain antibody variable fragment (scFv)
  Kd: 80 nM

— patent US20220041753A1 (H LEE MOFFITT CANCER CENTER AND RESEARCH INSTITUTE, published 2022)
